T1: hu-M-IL1RAP construct, positions S21-T367 (extracellular domain of the membrane form of human IL1RAP) (human, UniProt Q9NPH3 21-367)
T1 construct: Biotinylated when captured on the Biacore chip
T1 sequence: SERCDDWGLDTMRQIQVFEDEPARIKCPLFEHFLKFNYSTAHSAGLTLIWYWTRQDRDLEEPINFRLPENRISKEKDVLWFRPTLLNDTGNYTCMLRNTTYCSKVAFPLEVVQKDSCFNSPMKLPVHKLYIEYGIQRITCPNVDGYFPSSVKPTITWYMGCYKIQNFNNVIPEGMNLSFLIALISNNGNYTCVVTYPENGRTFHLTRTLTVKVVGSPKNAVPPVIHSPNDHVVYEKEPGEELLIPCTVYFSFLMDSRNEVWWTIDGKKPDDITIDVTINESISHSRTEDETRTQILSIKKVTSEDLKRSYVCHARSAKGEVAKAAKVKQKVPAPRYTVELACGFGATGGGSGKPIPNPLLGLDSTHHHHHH

T2: human IL1RAP (hu-IL1RAP) on human cells (human, UniProt Q9NPH3 21-570)
T2 sequence: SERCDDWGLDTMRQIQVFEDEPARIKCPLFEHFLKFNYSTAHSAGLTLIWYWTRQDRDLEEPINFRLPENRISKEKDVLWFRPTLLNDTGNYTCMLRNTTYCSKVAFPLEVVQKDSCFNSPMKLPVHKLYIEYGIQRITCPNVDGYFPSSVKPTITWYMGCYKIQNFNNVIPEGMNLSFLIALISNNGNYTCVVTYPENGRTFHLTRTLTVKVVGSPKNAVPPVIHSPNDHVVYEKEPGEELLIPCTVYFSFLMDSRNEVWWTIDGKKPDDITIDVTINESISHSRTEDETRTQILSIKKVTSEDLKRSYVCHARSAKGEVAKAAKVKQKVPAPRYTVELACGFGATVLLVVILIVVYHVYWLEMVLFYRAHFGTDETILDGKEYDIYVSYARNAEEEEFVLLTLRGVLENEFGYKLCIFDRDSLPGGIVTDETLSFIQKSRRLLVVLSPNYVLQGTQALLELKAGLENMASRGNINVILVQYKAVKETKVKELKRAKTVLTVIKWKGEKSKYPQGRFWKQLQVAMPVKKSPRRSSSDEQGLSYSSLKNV

B1: H5 Fab (VH V51S/G54H) (Fab, V domains shown)
VH: EVQLVESGGGLVQPGGSLRLSCAASGFTFSNYAMSWVRQAPGKGLEWVATSTEGHDYNYYLDDVKGRFTISRDNAKNSLYLQMNSLRAEDTAVYYCARDRWPYFFDYWGQGTLVTVSS
VL: DIQMTQSPSSLSASVGDRVTITCRASENIYSNLAWYQQKPGKSPKLLVYGAKNLADGVPSRFSGSGSGTDYTLTISSLQPEDFATYYCQHFWTTPRTFGGGTKVEIK
notes: Fab with 8xHis tag
B2: K5 Fab (VL Y30W/W92L) (Fab, V domains shown)
VH: EVQLVESGGGLVQPGGSLRLSCAASGFTFSNYAMSWVRQAPGKGLEWVATVTEGGDYNYYLDDVKGRFTISRDNAKNSLYLQMNSLRAEDTAVYYCARDRWPYFFDYWGQGTLVTVSS
VL: DIQMTQSPSSLSASVGDRVTITCRASENIWSNLAWYQQKPGKSPKLLVYGAKNLADGVPSRFSGSGSGTDYTLTISSLQPEDFATYYCQHFLTTPRTFGGGTKVEIK
notes: Fab with 8xHis tag
B3: K18 Fab (VL A51Y/L33G) (Fab, V domains shown)
VH: EVQLVESGGGLVQPGGSLRLSCAASGFTFSNYAMSWVRQAPGKGLEWVATVTEGGDYNYYLDDVKGRFTISRDNAKNSLYLQMNSLRAEDTAVYYCARDRWPYFFDYWGQGTLVTVSS
VL: DIQMTQSPSSLSASVGDRVTITCRASENIYSNGAWYQQKPGKSPKLLVYGYKNLADGVPSRFSGSGSGTDYTLTISSLQPEDFATYYCQHFWTTPRTFGGGTKVEIK
notes: Fab with 8xHis tag
B4: K11 Fab (VL A51R/K52G) (Fab, V domains shown)
VH: EVQLVESGGGLVQPGGSLRLSCAASGFTFSNYAMSWVRQAPGKGLEWVATVTEGGDYNYYLDDVKGRFTISRDNAKNSLYLQMNSLRAEDTAVYYCARDRWPYFFDYWGQGTLVTVSS
VL: DIQMTQSPSSLSASVGDRVTITCRASENIYSNLAWYQQKPGKSPKLLVYGRGNLADGVPSRFSGSGSGTDYTLTISSLQPEDFATYYCQHFWTTPRTFGGGTKVEIK
notes: Fab with 8xHis tag
B5: K6 Fab (VL Y30W/W92F) (Fab, V domains shown)
VH: EVQLVESGGGLVQPGGSLRLSCAASGFTFSNYAMSWVRQAPGKGLEWVATVTEGGDYNYYLDDVKGRFTISRDNAKNSLYLQMNSLRAEDTAVYYCARDRWPYFFDYWGQGTLVTVSS
VL: DIQMTQSPSSLSASVGDRVTITCRASENIWSNLAWYQQKPGKSPKLLVYGAKNLADGVPSRFSGSGSGTDYTLTISSLQPEDFATYYCQHFFTTPRTFGGGTKVEIK
notes: Fab with 8xHis tag
B6: K17 IgG (VL-A51Y/W92K) (antibody, V domains shown)
VH: EVQLVESGGGLVQPGGSLRLSCAASGFTFSNYAMSWVRQAPGKGLEWVATVTEGGDYNYYLDDVKGRFTISRDNAKNSLYLQMNSLRAEDTAVYYCARDRWPYFFDYWGQGTLVTVSS
VL: DIQMTQSPSSLSASVGDRVTITCRASENIYSNLAWYQQKPGKSPKLLVYGYKNLADGVPSRFSGSGSGTDYTLTISSLQPEDFATYYCQHFKTTPRTFGGGTKVEIK
B7: Parent IgG Ab (full-length IgG of h11C5_C59Y/A43S) (antibody, V domains shown)
VH: EVQLVESGGGLVQPGGSLRLSCAASGFTFSNYAMSWVRQAPGKGLEWVATVTEGGDYNYYLDDVKGRFTISRDNAKNSLYLQMNSLRAEDTAVYYCARDRWPYFFDYWGQGTLVTVSS
VL: DIQMTQSPSSLSASVGDRVTITCRASENIYSNLAWYQQKPGKSPKLLVYGAKNLADGVPSRFSGSGSGTDYTLTISSLQPEDFATYYCQHFWTTPRTFGGGTKVEIK
B8: K10/H3 IgG (VL-A51Y, VH-V51S) (antibody, V domains shown)
VH: EVQLVESGGGLVQPGGSLRLSCAASGFTFSNYAMSWVRQAPGKGLEWVATSTEGGDYNYYLDDVKGRFTISRDNAKNSLYLQMNSLRAEDTAVYYCARDRWPYFFDYWGQGTLVTVSS
VL: DIQMTQSPSSLSASVGDRVTITCRASENIYSNLAWYQQKPGKSPKLLVYGYKNLADGVPSRFSGSGSGTDYTLTISSLQPEDFATYYCQHFWTTPRTFGGGTKVEIK
B9: K10/H2 IgG (VL-A51Y, VH-R96D) (antibody, V domains shown)
VH: EVQLVESGGGLVQPGGSLRLSCAASGFTFSNYAMSWVRQAPGKGLEWVATVTEGGDYNYYLDDVKGRFTISRDNAKNSLYLQMNSLRAEDTAVYYCARDDWPYFFDYWGQGTLVTVSS
VL: DIQMTQSPSSLSASVGDRVTITCRASENIYSNLAWYQQKPGKSPKLLVYGYKNLADGVPSRFSGSGSGTDYTLTISSLQPEDFATYYCQHFWTTPRTFGGGTKVEIK
B10: K13 IgG (VL-A51Y/W92I) (antibody, V domains shown)
VH: EVQLVESGGGLVQPGGSLRLSCAASGFTFSNYAMSWVRQAPGKGLEWVATVTEGGDYNYYLDDVKGRFTISRDNAKNSLYLQMNSLRAEDTAVYYCARDRWPYFFDYWGQGTLVTVSS
VL: DIQMTQSPSSLSASVGDRVTITCRASENIYSNLAWYQQKPGKSPKLLVYGYKNLADGVPSRFSGSGSGTDYTLTISSLQPEDFATYYCQHFITTPRTFGGGTKVEIK
B11: K10 IgG (VL-A51Y) (antibody, V domains shown)
VH: EVQLVESGGGLVQPGGSLRLSCAASGFTFSNYAMSWVRQAPGKGLEWVATVTEGGDYNYYLDDVKGRFTISRDNAKNSLYLQMNSLRAEDTAVYYCARDRWPYFFDYWGQGTLVTVSS
VL: DIQMTQSPSSLSASVGDRVTITCRASENIYSNLAWYQQKPGKSPKLLVYGYKNLADGVPSRFSGSGSGTDYTLTISSLQPEDFATYYCQHFWTTPRTFGGGTKVEIK
B12: H7 Fab (VH F29E/N57G/R96A) (Fab, V domains shown)
VH: EVQLVESGGGLVQPGGSLRLSCAASGFTESNYAMSWVRQAPGKGLEWVATVTEGGDYGYYLDDVKGRFTISRDNAKNSLYLQMNSLRAEDTAVYYCARDAWPYFFDYWGQGTLVTVSS
VL: DIQMTQSPSSLSASVGDRVTITCRASENIYSNLAWYQQKPGKSPKLLVYGAKNLADGVPSRFSGSGSGTDYTLTISSLQPEDFATYYCQHFWTTPRTFGGGTKVEIK
notes: Fab with 8xHis tag

These binders were tested against T1, hu-M-IL1RAP construct, positions … (assay: SPR, Fab analyte, 25 C).
B1 showed a Kd of 0.05 nM, a koff of 0.000235 s⁻¹ and a kon of 4.71e+06 M⁻¹ s⁻¹.
B2 gave a Kd of 0.0524 nM, a koff of 0.000268 s⁻¹ and a kon of 5.11e+06 M⁻¹ s⁻¹.
B3 was tested, and the Kd was 0.0189 nM, the koff was 0.000123 s⁻¹ and the kon was 6.52e+06 M⁻¹ s⁻¹.
With B4 the Kd was 0.0212 nM, the koff was 0.000102 s⁻¹ and the kon was 4.83e+06 M⁻¹ s⁻¹.
B5 gave a Kd of 0.0147 nM, a koff of 6.25e-05 s⁻¹ and a kon of 4.25e+06 M⁻¹ s⁻¹.

The binders below were run against T2, human IL1RAP (hu-IL1RAP) on human cells (assay: cell-based or functional assay).
B6 was tested, and the “HEK-Blue, IL-1β, % inhibition at 100 nM (IgG)” value (from here on “HEK-Blue, IL-1β, % inhibition”) was 100%, the “HEK-Blue, IL-1β, IC50 (IgG)” value was 0.468 nM and the “HEK-Blue, IL-33, % inhibition at 100 nM (IgG)” value (shortened to “HEK-Blue, IL-33, % inhibition”) was 99%. The “HEK-Blue, IL-33, IC50 (IgG)” value was 2.74 nM, the “HEK-Blue, IL-36α, % inhibition at 100 nM (IgG)” value (“HEK-Blue, IL-36α, % inhibition” below) was 100% and the “HEK-Blue, IL-36α, IC50 (IgG)” value was 0.495 nM.
In the case of B7, the “HEK-Blue, IL-1β, % inhibition” value is reported as 99%, the “HEK-Blue, IL-1β, IC50 (IgG)” value is reported as 0.363 nM and the “HEK-Blue, IL-33, % inhibition” value is reported as 99%. The “HEK-Blue, IL-33, IC50 (IgG)” value was 2.04 nM, the “HEK-Blue, IL-36α, % inhibition” value was 89% and the “HEK-Blue, IL-36α, IC50 (IgG)” value was 0.34 nM.
For B8, the “HEK-Blue, IL-1β, % inhibition” value was 100%, the “HEK-Blue, IL-1β, IC50 (IgG)” value was 0.177 nM and the “HEK-Blue, IL-33, % inhibition” value was 99%. For the same binder, the “HEK-Blue, IL-33, IC50 (IgG)” value was 0.354 nM, the “HEK-Blue, IL-36α, % inhibition” value was 100% and the “HEK-Blue, IL-36α, IC50 (IgG)” value was 0.28 nM.
For B9, the “HEK-Blue, IL-1β, % inhibition” value was 100%, the “HEK-Blue, IL-1β, IC50 (IgG)” value was 0.285 nM and the “HEK-Blue, IL-33, % inhibition” value was 100%. For the same binder, the “HEK-Blue, IL-33, IC50 (IgG)” value was 1.06 nM, the “HEK-Blue, IL-36α, % inhibition” value was 100% and the “HEK-Blue, IL-36α, IC50 (IgG)” value was 0.34 nM.
B10 was tested, and the “HEK-Blue, IL-1β, % inhibition” value was 100%, the “HEK-Blue, IL-1β, IC50 (IgG)” value was 0.332 nM and the “HEK-Blue, IL-33, % inhibition” value was 100%. For the same binder, the “HEK-Blue, IL-33, IC50 (IgG)” value was 1.77 nM, the “HEK-Blue, IL-36α, % inhibition” value was 100% and the “HEK-Blue, IL-36α, IC50 (IgG)” value was 0.303 nM.
For B11, the “HEK-Blue, IL-1β, % inhibition” value was 100%, the “HEK-Blue, IL-1β, IC50 (IgG)” value was 0.23 nM and the “HEK-Blue, IL-33, % inhibition” value was 100%. For the same binder, the “HEK-Blue, IL-33, IC50 (IgG)” value was 1.37 nM, the “HEK-Blue, IL-36α, % inhibition” value was 100% and the “HEK-Blue, IL-36α, IC50 (IgG)” value was 0.247 nM.

What follows are binders tested against T1, hu-M-IL1RAP construct, positions … (assay: SPR, Fab analyte, 37 C).
Description: Surface plasmon resonance (SPR) analysis was used to determine binding affinity for hu-M-IL1RAP of the purified Fabs containing the selected single, double, and triple mutations in either the VL or VH regions using a BIACORE™ 8K instrument. […] For kinetics measurements, 5 nM biotinylated hu-M-IL1RAP was captured at 10 μL/min to achieve ˜50 response units in the second flow cell (FC2). FC1 was kept as a reference. […] The sensorgrams were recorded and subjected to reference and buffer subtraction before data analysis with the BIACORE® 8K Evaluation Software (version 1.1.1.7442). Association rates (kₒₙ) and dissociation rates (koff) were calculated using a simple one-to-one Langmuir binding model. The equilibrium dissociation constant (KD) was calculated as the ratio of koff/kₒₙ.
B12 showed a Kd of 0.0998 nM, a koff of 0.000511 s⁻¹ and a kon of 5.13e+06 M⁻¹ s⁻¹.
